In patent US20240002516A1 (4B TECHNOLOGIES SUZHOU, published 2024):

Legend:
[1] = target: T1, human TrkA on CellSensor TrkA-NFAT-bla CHO-K1 cells (human, UniProt P04629 33-796); experiment: cell-based or functional assay
[2] = target: T2, extracellular domain (ECD) of human TrkA protein, N-terminal flag tag and C-terminal His tag (PHA) (human, UniProt P04629 33-423); experiment: BLI (Octet Red384), as in Example 4
T2 construct: Made in 293-F cells and purified by IMAC; also called TrkA ECD protein; TrkA (ECD); not shown: flag tag at the N-terminus (after the signal peptide); His tag at the C-terminus
T2 sequence (P04629 33-423): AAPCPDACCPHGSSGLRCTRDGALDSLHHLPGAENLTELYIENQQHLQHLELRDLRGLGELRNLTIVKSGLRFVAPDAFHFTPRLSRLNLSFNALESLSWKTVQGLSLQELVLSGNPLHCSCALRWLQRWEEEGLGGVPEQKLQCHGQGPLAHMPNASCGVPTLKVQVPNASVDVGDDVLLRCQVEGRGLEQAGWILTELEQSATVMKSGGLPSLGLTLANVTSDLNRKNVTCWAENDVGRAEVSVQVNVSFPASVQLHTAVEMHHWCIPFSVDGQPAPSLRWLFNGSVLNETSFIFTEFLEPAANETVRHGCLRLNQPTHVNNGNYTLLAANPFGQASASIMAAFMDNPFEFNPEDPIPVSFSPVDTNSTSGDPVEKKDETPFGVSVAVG
Experimental: (§1) The bio-layer interferometry (BLI) method was used to determine the affinities of the antibodies, employing Octet Red384. Briefly, anti-human Fc-coated biosensor AHQ tips (ForteBio) were put into PBS with 0.1% w/v bovine serum albumin and 0.05% Tween-20 for a minimum of 10 min in the pre-wetting plate. The purified antibodies (100 nM in PBS with 0.1% bovine serum albumin and 0.05% Tween-20 (assay buffer)) were captured on AHQ biosensors (ForteBio) at a level of about 1 nm. The loaded biosensors were washed with an assay buffer to remove any unbound protein. Then, the association rates, dissociation rates and response were measured, using an antigen of 100 nM (in PBS with 0.1% bovine serum albumin and 0.05% Tween-20).
Two rounds of humanizations were further performed. […] In the second round, many other variants were further constructed (including several mutations in the CDR sequences). Quickchange based site-directed mutagenesis or overlap PCR were performed to create expression plasmid of new versions of 2nd round humanized antibodies. All recombinant antibodies were expressed and purified as described in Example 1, then measured antigen binding affinity using BLI technology with the Octet Red384 instrument as mentioned above. To compare the functional activity of humanized antibodies with chimeric antibodies, NFAT assay was also performed.

[3] = target: T1, human TrkA on CellSensor TrkA-NFAT-bla …; experiment: FACS on cells expressing human TrkA (FIG. 5A)
[4] = target: T2, extracellular domain (ECD) of human …; experiment: affinity after affinity maturation; method not stated in Example 5
[5] = target: T2, extracellular domain (ECD) of human …; experiment: BLI (Octet Red384), antibody captured on anti-human Fc AHQ tips, antigen 100 nM
Experimental: as §1

[6] = target: T2, extracellular domain (ECD) of human …; experiment: affinity after affinity maturation; method not stated in Example 5; measured in the affinity maturation series of Example 5, not the humanization series of the 11th table

T1 sequence (P04629 33-796 limits assumed, form in doubt): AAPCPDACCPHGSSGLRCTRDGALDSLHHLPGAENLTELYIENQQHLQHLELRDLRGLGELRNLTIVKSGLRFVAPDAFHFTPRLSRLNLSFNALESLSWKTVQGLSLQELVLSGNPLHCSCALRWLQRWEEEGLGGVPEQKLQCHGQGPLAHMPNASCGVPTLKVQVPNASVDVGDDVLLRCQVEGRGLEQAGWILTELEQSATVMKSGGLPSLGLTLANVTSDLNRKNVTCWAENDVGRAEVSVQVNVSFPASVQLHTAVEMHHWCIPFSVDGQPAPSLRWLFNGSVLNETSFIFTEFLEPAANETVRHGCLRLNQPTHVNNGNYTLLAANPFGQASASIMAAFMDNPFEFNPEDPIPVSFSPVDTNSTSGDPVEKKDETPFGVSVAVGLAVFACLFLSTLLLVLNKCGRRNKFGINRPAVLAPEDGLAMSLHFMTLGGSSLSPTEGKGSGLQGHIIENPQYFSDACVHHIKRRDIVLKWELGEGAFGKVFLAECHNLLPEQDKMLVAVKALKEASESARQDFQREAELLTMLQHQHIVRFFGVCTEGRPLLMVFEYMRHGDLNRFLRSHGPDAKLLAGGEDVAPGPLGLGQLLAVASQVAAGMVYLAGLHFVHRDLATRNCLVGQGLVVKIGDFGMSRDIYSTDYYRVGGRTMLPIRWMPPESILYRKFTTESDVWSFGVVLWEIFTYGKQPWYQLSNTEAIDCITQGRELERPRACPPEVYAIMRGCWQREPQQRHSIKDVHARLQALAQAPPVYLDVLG

- EC50 (so labelled in the drawn table; a falling inhibition curve, the text calls this value IC50); inhibition of NGF-induced TrkA activation in TrkA-NFAT-bla CHO-K1 reporter cells [1]: 0.793 nM
- Top; inhibition of NGF-induced TrkA activation in TrkA-NFAT-bla CHO-K1 reporter cells [1]: 1.04 Response Ratio
- Kd [2]: 3.62 nM
- koff [2]: 0.000827 s⁻¹
- kon [2]: 229000 M⁻¹ s⁻¹
- EC50 [3]: 0.157 µg/mL
- koff [4]: 0.000665 s⁻¹
- kon [4]: 219000 M⁻¹ s⁻¹
- Kd [5]: 1.79 nM
- koff [5]: 0.000603 s⁻¹
- kon [5]: 337000 M⁻¹ s⁻¹
- Kd [6]: 3.04 nM
B1: chi-PHD49 (antibody, V domains shown)
VH: QVQLQQSGAELARPGASVKLSCKASGYTFSSYWMQWVKQRPGQGLEWIGAIYPGDDDTIYTQKFKGKATLTADKSSSTAYMQLSSLASEDSAVYYCARNYDYQAWFAYWGQGTLVTVSA
VL: QIVLTQSPALMSASPGEKVTMTCSASSSVSYMYWYQQKPRSSPKPWIYLTSNLASGVPARFSGSGSGTSYSLTISSMEAEDAATYYCQQWSSNPLTFGAGTKLELK
notes: Chimeric: human IgG4 / human kappa constant regions (pCDNA3.4-hIgG4 and pCDNA3.4-hKappa vectors)
